Data taken from the supplement of paper PMC10567573.

B1: ZNF263 (parent)
chain: KPYKCTLCGENFSHRSNLIRHQRI

Variants of: B1
Assay: protein stability index of a GFP-peptide fusion (GPS, HEK-293T) (PSI 1-6); higher = more stable
Details: c terminus: a fixed tail appended
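Note: lentivirally expressed fusions sorted by FACS into six bins by GFP to DsRed ratio, PSI derived from sequencing read proportions per bin multiplied by bin number.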

For KPYKCTSCGENFSHRSNLIRHQRI [L7S], which protein stability index is on record?
The protein stability index was 2.68.

With KPYKCTICGENFSHRSNLIRHQRI [L7I] as the variant, how does the protein stability index read?
Its protein stability index is 3.06.

For KPYKCTNCGENFSHRSNLIRHQRI [L7N], which protein stability index is on record?
The protein stability index was 2.78.

With KPYKCTTCGENFSHRSNLIRHQRI [L7T] as the variant, how does the protein stability index read?
The protein stability index was 2.51.

For KPYKCTFCGENFSHRSNLIRHQRI [L7F], which protein stability index is on record?
Its protein stability index is 2.51.

With KPYKCTMCGENFSHRSNLIRHQRI [L7M] as the variant, how does the protein stability index read?
The protein stability index was 3.12.

With KPYKCTDCGENFSHRSNLIRHQRI [L7D] as the variant, how does the protein stability index read?
Its protein stability index is 3.02.

Which protein stability index does the source give for KPYKCTECGENFSHRSNLIRHQRI [L7E] here?
The protein stability index was 3.63.

With KPYKCTQCGENFSHRSNLIRHQRI [L7Q] as the variant, how does the protein stability index read?
The protein stability index was 3.02.

For KPYKCTCCGENFSHRSNLIRHQRI [L7C], which protein stability index is on record?
The protein stability index was 3.9.

For KPYKCTPCGENFSHRSNLIRHQRI [L7P], which protein stability index is on record?
Its protein stability index is 1.69.

With KPYKCTHCGENFSHRSNLIRHQRI [L7H] as the variant, how does the protein stability index read?
The protein stability index was 3.88.

For KPYKCTRCGENFSHRSNLIRHQRI [L7R], which protein stability index is on record?
The protein stability index was 2.28.

For KPYKCTACGENFSHRSNLIRHQRI [L7A], which protein stability index is on record?
Its protein stability index is 3.07.

Which protein stability index does the source give for KPYKCTVCGENFSHRSNLIRHQRI [L7V] here?
Its protein stability index is 3.37.

Which protein stability index does the source give for KPYKCTKCGENFSHRSNLIRHQRI [L7K] here?
Its protein stability index is 3.22.

For KPYKCTWCGENFSHRSNLIRHQRI [L7W], which protein stability index is on record?
The protein stability index was 2.69.

For KPYKCTYCGENFSHRSNLIRHQRI [L7Y], which protein stability index is on record?
The protein stability index was 3.25.

Which protein stability index does the source give for KPYKCTGCGENFSHRSNLIRHQRI [L7G] here?
Its protein stability index is 2.18.

Which protein stability index does the source give for KPYKCTLCGLNFSHRSNLIRHQRI [E10L] here?
The protein stability index was 1.88.

With KPYKCTLCGKNFSHRSNLIRHQRI [E10K] as the variant, how does the protein stability index read?
Its protein stability index is 3.4.

For KPYKCTLCGYNFSHRSNLIRHQRI [E10Y], which protein stability index is on record?
Its protein stability index is 1.69.

Which protein stability index does the source give for KPYKCTLCGWNFSHRSNLIRHQRI [E10W] here?
The protein stability index was 2.35.

With KPYKCTLCGPNFSHRSNLIRHQRI [E10P] as the variant, how does the protein stability index read?
The protein stability index was 2.09.

For KPYKCTLCGQNFSHRSNLIRHQRI [E10Q], which protein stability index is on record?
The protein stability index was 2.98.

With KPYKCTLCGFNFSHRSNLIRHQRI [E10F] as the variant, how does the protein stability index read?
The protein stability index was 2.36.

Which protein stability index does the source give for KPYKCTLCGRNFSHRSNLIRHQRI [E10R] here?
Its protein stability index is 2.97.

Which protein stability index does the source give for KPYKCTLCGANFSHRSNLIRHQRI [E10A] here?
Its protein stability index is 2.82.

With KPYKCTLCGTNFSHRSNLIRHQRI [E10T] as the variant, how does the protein stability index read?
The protein stability index was 2.06.

Which protein stability index does the source give for KPYKCTLCGNNFSHRSNLIRHQRI [E10N] here?
The protein stability index was 2.24.

Which protein stability index does the source give for KPYKCTLCGMNFSHRSNLIRHQRI [E10M] here?
Its protein stability index is 2.67.

With KPYKCTLCGSNFSHRSNLIRHQRI [E10S] as the variant, how does the protein stability index read?
Its protein stability index is 2.61.

With KPYKCTLCGINFSHRSNLIRHQRI [E10I] as the variant, how does the protein stability index read?
The protein stability index was 2.35.

Which protein stability index does the source give for KPYKCTLCGHNFSHRSNLIRHQRI [E10H] here?
Its protein stability index is 2.71.

For KPYKCTLCGGNFSHRSNLIRHQRI [E10G], which protein stability index is on record?
Its protein stability index is 3.09.

Which protein stability index does the source give for KPYKCTLCGDNFSHRSNLIRHQRI [E10D] here?
The protein stability index was 2.25.

For KPYKCTLCGVNFSHRSNLIRHQRI [E10V], which protein stability index is on record?
Its protein stability index is 2.56.

For KPYKCTLCGCNFSHRSNLIRHQRI [E10C], which protein stability index is on record?
The protein stability index was 1.94.

For KPYKCTLCGENFSIRSNLIRHQRI [H14I], which protein stability index is on record?
The protein stability index was 2.07.

For KPYKCTLCGENFSPRSNLIRHQRI [H14P], which protein stability index is on record?
The protein stability index was 1.85.

Which protein stability index does the source give for KPYKCTLCGENFSMRSNLIRHQRI [H14M] here?
Its protein stability index is 2.55.

For KPYKCTLCGENFSERSNLIRHQRI [H14E], which protein stability index is on record?
The protein stability index was 2.95.

With KPYKCTLCGENFSCRSNLIRHQRI [H14C] as the variant, how does the protein stability index read?
Its protein stability index is 2.68.

Which protein stability index does the source give for KPYKCTLCGENFSFRSNLIRHQRI [H14F] here?
Its protein stability index is 2.23.

With KPYKCTLCGENFSYRSNLIRHQRI [H14Y] as the variant, how does the protein stability index read?
The protein stability index was 3.16.

For KPYKCTLCGENFSLRSNLIRHQRI [H14L], which protein stability index is on record?
The protein stability index was 2.73.

For KPYKCTLCGENFSTRSNLIRHQRI [H14T], which protein stability index is on record?
Its protein stability index is 2.75.

For KPYKCTLCGENFSSRSNLIRHQRI [H14S], which protein stability index is on record?
The protein stability index was 3.56.

Which protein stability index does the source give for KPYKCTLCGENFSKRSNLIRHQRI [H14K] here?
Its protein stability index is 2.81.

For KPYKCTLCGENFSQRSNLIRHQRI [H14Q], which protein stability index is on record?
Its protein stability index is 1.9.

Which protein stability index does the source give for KPYKCTLCGENFSVRSNLIRHQRI [H14V] here?
The protein stability index was 2.43.

With KPYKCTLCGENFSRRSNLIRHQRI [H14R] as the variant, how does the protein stability index read?
Its protein stability index is 2.41.

For KPYKCTLCGENFSNRSNLIRHQRI [H14N], which protein stability index is on record?
Its protein stability index is 2.56.

With KPYKCTLCGENFSGRSNLIRHQRI [H14G] as the variant, how does the protein stability index read?
Its protein stability index is 1.97.

Which protein stability index does the source give for KPYKCTLCGENFSWRSNLIRHQRI [H14W] here?
The protein stability index was 1.43.

For KPYKCTLCGENFSDRSNLIRHQRI [H14D], which protein stability index is on record?
The protein stability index was 2.68.

For KPYKCTLCGENFSARSNLIRHQRI [H14A], which protein stability index is on record?
Its protein stability index is 2.56.

For KPYKCTLCGETFSHRSNLIRHQRI [N11T], which protein stability index is on record?
Its protein stability index is 3.59.

With KPYKCTLCGELFSHRSNLIRHQRI [N11L] as the variant, how does the protein stability index read?
The protein stability index was 2.69.

Which protein stability index does the source give for KPYKCTLCGEYFSHRSNLIRHQRI [N11Y] here?
The protein stability index was 2.8.

With KPYKCTLCGEMFSHRSNLIRHQRI [N11M] as the variant, how does the protein stability index read?
The protein stability index was 3.49.

With KPYKCTLCGESFSHRSNLIRHQRI [N11S] as the variant, how does the protein stability index read?
The protein stability index was 2.8.

Which protein stability index does the source give for KPYKCTLCGEGFSHRSNLIRHQRI [N11G] here?
The protein stability index was 2.52.

Which protein stability index does the source give for KPYKCTLCGEEFSHRSNLIRHQRI [N11E] here?
Its protein stability index is 3.23.

Which protein stability index does the source give for KPYKCTLCGEWFSHRSNLIRHQRI [N11W] here?
The protein stability index was 2.25.

Which protein stability index does the source give for KPYKCTLCGEHFSHRSNLIRHQRI [N11H] here?
The protein stability index was 3.33.

Which protein stability index does the source give for KPYKCTLCGEQFSHRSNLIRHQRI [N11Q] here?
The protein stability index was 2.62.

Which protein stability index does the source give for KPYKCTLCGERFSHRSNLIRHQRI [N11R] here?
The protein stability index was 3.03.

For KPYKCTLCGECFSHRSNLIRHQRI [N11C], which protein stability index is on record?
The protein stability index was 3.11.

For KPYKCTLCGEFFSHRSNLIRHQRI [N11F], which protein stability index is on record?
Its protein stability index is 2.61.

For KPYKCTLCGEIFSHRSNLIRHQRI [N11I], which protein stability index is on record?
Its protein stability index is 3.18.

Which protein stability index does the source give for KPYKCTLCGEKFSHRSNLIRHQRI [N11K] here?
Its protein stability index is 2.98.

Which protein stability index does the source give for KPYKCTLCGEVFSHRSNLIRHQRI [N11V] here?
Its protein stability index is 2.83.

For KPYKCTLCGEAFSHRSNLIRHQRI [N11A], which protein stability index is on record?
Its protein stability index is 2.72.

With KPYKCTLCGEPFSHRSNLIRHQRI [N11P] as the variant, how does the protein stability index read?
The protein stability index was 1.8.

With KPYKCTLCGEDFSHRSNLIRHQRI [N11D] as the variant, how does the protein stability index read?
The protein stability index was 2.23.

For KPYKCTLDGENFSHRSNLIRHQRI [C8D], which protein stability index is on record?
The protein stability index was 2.62.

Which protein stability index does the source give for KPYKCTLTGENFSHRSNLIRHQRI [C8T] here?
The protein stability index was 2.69.

With KPYKCTLRGENFSHRSNLIRHQRI [C8R] as the variant, how does the protein stability index read?
The protein stability index was 1.73.

With KPYKCTLKGENFSHRSNLIRHQRI [C8K] as the variant, how does the protein stability index read?
The protein stability index was 3.61.

Which protein stability index does the source give for KPYKCTLVGENFSHRSNLIRHQRI [C8V] here?
The protein stability index was 2.47.

With KPYKCTLNGENFSHRSNLIRHQRI [C8N] as the variant, how does the protein stability index read?
The protein stability index was 2.89.

Which protein stability index does the source give for KPYKCTLLGENFSHRSNLIRHQRI [C8L] here?
Its protein stability index is 2.44.

Which protein stability index does the source give for KPYKCTLWGENFSHRSNLIRHQRI [C8W] here?
Its protein stability index is 1.88.

With KPYKCTLSGENFSHRSNLIRHQRI [C8S] as the variant, how does the protein stability index read?
Its protein stability index is 4.1.

For KPYKCTLEGENFSHRSNLIRHQRI [C8E], which protein stability index is on record?
The protein stability index was 2.48.

For KPYKCTLHGENFSHRSNLIRHQRI [C8H], which protein stability index is on record?
Its protein stability index is 2.1.

Which protein stability index does the source give for KPYKCTLAGENFSHRSNLIRHQRI [C8A] here?
Its protein stability index is 2.34.

For KPYKCTLQGENFSHRSNLIRHQRI [C8Q], which protein stability index is on record?
The protein stability index was 2.74.

With KPYKCTLIGENFSHRSNLIRHQRI [C8I] as the variant, how does the protein stability index read?
Its protein stability index is 2.58.

Which protein stability index does the source give for KPYKCTLFGENFSHRSNLIRHQRI [C8F] here?
The protein stability index was 2.11.

With KPYKCTLGGENFSHRSNLIRHQRI [C8G] as the variant, how does the protein stability index read?
Its protein stability index is 2.45.

With KPYKCTLYGENFSHRSNLIRHQRI [C8Y] as the variant, how does the protein stability index read?
Its protein stability index is 2.41.

For KPYKCTLMGENFSHRSNLIRHQRI [C8M], which protein stability index is on record?
Its protein stability index is 1.83.
